From a protein production outcome set (Wang et al. 2014)

Test: label from the status in PepcDB records

Sequence | protein production
MNSLQILSFVGFTLLVAVITWWKVRKTDTGSQQGYFLAGRSLKAPVIAASLMLTNLSTEQLVGLSGQAYKSGMSVMGWEVTSAVTLIFLALIFLPRYLKRGIATIPDFLEERYDKTTRIIIDFCFLIATGVCFLPIVLYSGALALNSLFHVGESLQISHGAAIWLLVILLGLAGILYAVIGGLRAMAVADSINGIGLVIGGLMVPVFGLIAMGKGSFMQGIEQLTTVHAEKLNSIGGPTDPLPIGAAFTGLILVNTFYWCTNQGIVQRTLASKSLAEGQKGALLTAVLKMLDPLVLVLPGLIAFHLYQDLPKADMAYPTLVNNVLPVPMVGFFGAVLFGAVISTFNGFLNSASTLFSMGIYRRIINQNAEPQQLVTVGRKFGFFIAIVSVLVAPWIANAPQGLYSWMKQLNGIYNVPLVTIIIMGFFFPRIPALAAKVAMGIGIISYITINYLVKFDFHFLYVLACTFCINVVVMLVIGFIKPRATPFTFKDAFAVDMKPWKNVKIASIGILFAMIGVYAGLAEFGGYGTRWLAMISYFIAAVVIVYLIFDSWRHRHDPAVTFTPDGKDSL | failed
MNSNDQPGLDLLGDPIVLTQRLVDIPSPSGQEKQIADEIEDALRNLNLPGVEVFRFNNNVLARTNRGLASRVMLAGHIDTVPIADNLPSRVEDGIMYGCGTVDMKSGLAVYLHTFATLATSTELKHDLTLIAYECEEVADHLNGLGHIRDEHPEWLAADLALLGEPTGGWIEAGCQGNLRIKVTAHGVRAHSARSWLGDNAMHKLSPIISKVAAYKAAEVNIDGLTYREGLNIVFCESGVANNVIPDLAWMNLNFRFAPNRDLNEAIEHVVETLELDGQDGIEWAVEDGAGGALPGLGQQVTSGLIDAVGREKIRAKFGWTDVSRFSAMGIPALNFGAGDPSFAHKRDEQCPVEQITDVAAILKQYLSE | not failed
MNSTISFLYQPKVQNGSIISVEALLRVPGVTNIESYVSMVTNKPLFDYTIIRKVLSDRREYHENIGYSFPVSINISIQSLESDYFINKTSKLLKNEPNVTLEITENDSYLSLERVKESMGILKSLGVKFSLDDFGKGFSDIEQVLSLDLDEIKVDGSLVNDIENNFYKFRHLKYTLDELEDISNFNIVIERVENKKQVNLIESLGKKVSYQGYFFYKPMNLFDLTIATPEPHKEEKHEPKLLLEKLIYELIKTDNDNECAQLVNDIHSVDIFNNLGSKVCDSLTITEVKKSILKKYNKIALNPNSPENLFFKSYLNCMSRLVIIRDSEGNALFNNQAHINFMNVDLVGMPLESIYEKFEQYESCIAIDKELIESKSNFLAVREVVDFDGQTKSYYTFRQKINHYGKTLIITIVYDEDDRDSFPRDALTDCFDRTILNSYYMNQFNMVAFIDMDGFKKINDNFSHKLGDDCLSKFVMYLKHELRKEDLIIRYGGDEFLIFTQWDDRHTFESRLNLIRNKVEKLFKSNNIDLSFSYGIEDLSKGMEIAINCADEKMYADKSRKLQ | failed
MNSYPLISVIMSVYKEEREWLVSSIQSILDQTVSDFEFIIILDFPNSELLKTLKDFEKKDSRIIIYQNEKNVGLVESLNTALSFSRGKYIARMDADDISHKNRFEKQLKYITLNNLDLVGGNVNIFHSNKGIYNTTDKVQSDYFLCKLLKIGTIGIVHPTFFSKRNVYDTIGGYYHAECAEDLELLMRANLNGFKIGNIPDVILDCRYSEKSITKENAYFMFCTVKYLKSLYRSSLKSGDYKFNSNYIELYLYDENNKLAFSEKQNLMSEARHSFNEKKYISFLINLIKSILISRTVFFSIKVNVMSFLFRKVEVKIPKVLLACIKIKLQLEHHHHHH | not failed
MNTFPWLTTIILLPIVAALFIPIIPDKDGKTVRWYSLAVGLVDFALIVYAFYSGFDLSEPGLQLVESYTWLPQIDLKWSVGADGLSMPLIILTGFITTLATMAAWPVTLKPKLFYFLMLLMYGGQIAVFAVQDILLFFLVWELELVPVYLILSIWGGKKRLYAATKFILYTAGGSLFILLAGLTLAFYGDVNTFDMSAIAAKDIPVNLQLLLYAGFLIAYGVKLPIFPLHTWLPDAHGEATAPAHMLLAGILLKMGGYALLRMNVGMLPDAHAVFAPVLVILGVVNIIYAAFTSFAQRNLKRKIAYSSISHMGFVLIGLASFTDLGMSGAMLQMISHGLIGASLFFMVGATYDRTHTLMLDEMGGIGQKMKKGFAMWTACSLASLALPGMSGFVAELMVFVGFATSDAYNLVFRTIVVVLMGVGVILTPIYLLSMLREMLYGPENEELVNHTNLVDVEPREVFIIGCLLVPIIGIGFYPKLITQIYDPTINQLVQTARRSVPSLVQQANLSPLEVTALRPPTIGF | failed
MNTIIRYASLWGLCAALTLAQTPSKTPDEIKQILNNYSHKNLKLIDPPTSSLEATPSFLSSPKETATTINQEIAKYHEKSDKAALGLYELLKGATTNLSLQAQELSVKQAMKNHTIAKAMFLPTLNASYNFKNEARDTPEYKHYNTQQLQAQVTLNVFNGFSDVNNVKEKSATYRSNVANLEYSRQSVYLQVVQQYYEYFNNLARMIALQKKLEQIKTDIKRVTKLYDKGLTTIDDLQSLKAQGNLSEYDILDMQFALEQNRLTLEYLTNLSVKNLKKTTIDAPNLQLRERQDLVSLREQISAIRYQNKQLNYYPKIDVFDSWLFWIQKPAYATGRFGNFYPGQQNTAGVTATLNIFDDIGLSLQKQSIMLGQLANEKNLAYKKLEQEKDEQLYRKSLDIARAKIESSKASLDAANLSFANIKRKYDANLVDFTTYLRGLTTRFDAEVAYNLALNNYEVQKANYIFNSGHKIDDYVH | failed
MNTILSTLFIVLAAWFVISRFLPVKGVQNINGKELKSIVGKQGKYFIDVRTVGEYRGNHMKGFQNIPLNDLASKTNQLDKNREVIVICQSGMRSKQAAKMLKKLGFQHVINVSGGMNGL | failed
MNTIVVAQLQRQFQDYIVSLYQQGFLDNQFSELRKLQDEGTPDFVAEVVSLFFDDCSKLINTMSISLERPDNVDFKQVDSGVHQLKGSSSSLCFVLSVGARRVKNVCISFKECCDVQNREGYSSNSHTNCDNDIWHRCLRCLQQVDYEYKMLKTKLQDLFNVSFKLCENLLVLLLEKQILQAGGTIPQVDIN | failed
MNTLNRYIGWEVIKGAAFAALVLLALLNFFTFADELRDLGEGNYGLGSIFLYLTLTSPHSLYELIPSGALIGGLVVLGNMANNHELVAMQAAGVSRGRIVWAVLRAGIVISLISVVISEYVIPPAERAAQMLKATATRQQVASQTKYGVWIRDGNVYVNVREIENQERLGDIHIFEISPDGRPALAMHAARASFDRGIWKLEDIGLTRFDPAGNAAIAEHKEQEDWSSVLSPDMLDVFIVRPENLSAQDLAKYMAYQTENAQKSLAVEQAFWGRMVNPLITLAMLLLAIPFVFNARRDVSSGQRIVIGVTIGLGFYLTNRMVSHLGLVYEVNAPLTMVTPPLVVLFAALAAFRRRP | failed
MNTLRYFDFGAARPVLLLIARIAVVLIFIIFGFPKMMGFDGTVQYMASLGAPMPMLAAIIAVVMEVPAAILIVLGFFTRPLAVLFIFYTLGTAVIGHHYWDMTGDAVGPNMINFWKNVSIAGAFLLLAITGPGAISLDRR | failed
MNTPQFNKIAVLVATLLISALFLTMIRQFLVTILLAGIFTGLAYPLFSRFITLTRGHRSLSASMTLVIFFMMVFLPLLAVFTVVILQAVSLSSTAIPLIREQLRDPEGFLRMLSSLPFYKDIESYSDLILEKAAEILGNLGSSVLSSFSAITWTAIYDLVLFIIFWYTMFFLLRDGHELLERIKYYLPLNESDQRRLFDRFVSVTRASLKGSLIIAVIQGTLAGLAFYVAGINQAVFWGAIMAMLSLLPLIGSPIIWVPAVIILALSGNYAQAIGLFLFCSIIVGQIDNVLRPILVGRDTSMHELFIFFGTLGGIGMFGLPGFIIGPVVAALFVTVWDIYGETFNESLIERRSGGGQAAGSDGSAP | failed
MNTRHFSQLPKPYLAYPKVIQGLVFKKPKGSKILPQVEYVVDSFQIDQQHLRDYNEVCGFQNDGFIPAIYLAVLSQSLQMHMMTTEAFPFPVLGLVHIRNQIKQIRKIAVNETLTLSCQFGELKPHDKGLQFDFITTAKVGNDIVMEGITTYLSRQKTEQVSAEKPKENKTPDYQVQQVWDVAENTGRRYAKTSGDYNLIHIHAITAKAFGFKQAIAHGMWSKAKALANIVLPDAYEADVWFKLPMYLPSKVEFLTAEQSKETDFLIRNAKSQKPHVSGVVKAL | failed
MNTSFIKTLMTTNAGFAALALRIPTAIIFIAHGAQKLFGSFGGYGLEGTGQWMASIGLEPGYQLALLAGSAEFFGGIALLIGLLVRPAALMLSVTMVVAIFSVHFANGLFMTNNGYEFALALLAVSFSLMFSGAGKLSLDNLLAEKLA | failed
